Source: patent US20090181035A1 (Genentech, published 2009)

Legend:
[1] = molecular target: T1, PlxD1-Fc (human PlexinD1 ECD Met1 to Ala1271 fused to the Fc portion of human IgG1) (human, UniProt Q9Y4D7 47-1271); assay: SPR (Biacore 3000, 25 C); PlxD1-Fc amine-coupled on CM5 chip, Sema3E^SD-His as analyte; one-to-one model; SPR, 25 C; PlxD1-Fc on the chip, His-tagged Sema3E^SD as analyte
T1 construct: range 1-1271; also called PlexinD1 immunoadhesin; soluble PlexinD1; not shown: Fc portion of human IgG1
T1 sequence (looked up): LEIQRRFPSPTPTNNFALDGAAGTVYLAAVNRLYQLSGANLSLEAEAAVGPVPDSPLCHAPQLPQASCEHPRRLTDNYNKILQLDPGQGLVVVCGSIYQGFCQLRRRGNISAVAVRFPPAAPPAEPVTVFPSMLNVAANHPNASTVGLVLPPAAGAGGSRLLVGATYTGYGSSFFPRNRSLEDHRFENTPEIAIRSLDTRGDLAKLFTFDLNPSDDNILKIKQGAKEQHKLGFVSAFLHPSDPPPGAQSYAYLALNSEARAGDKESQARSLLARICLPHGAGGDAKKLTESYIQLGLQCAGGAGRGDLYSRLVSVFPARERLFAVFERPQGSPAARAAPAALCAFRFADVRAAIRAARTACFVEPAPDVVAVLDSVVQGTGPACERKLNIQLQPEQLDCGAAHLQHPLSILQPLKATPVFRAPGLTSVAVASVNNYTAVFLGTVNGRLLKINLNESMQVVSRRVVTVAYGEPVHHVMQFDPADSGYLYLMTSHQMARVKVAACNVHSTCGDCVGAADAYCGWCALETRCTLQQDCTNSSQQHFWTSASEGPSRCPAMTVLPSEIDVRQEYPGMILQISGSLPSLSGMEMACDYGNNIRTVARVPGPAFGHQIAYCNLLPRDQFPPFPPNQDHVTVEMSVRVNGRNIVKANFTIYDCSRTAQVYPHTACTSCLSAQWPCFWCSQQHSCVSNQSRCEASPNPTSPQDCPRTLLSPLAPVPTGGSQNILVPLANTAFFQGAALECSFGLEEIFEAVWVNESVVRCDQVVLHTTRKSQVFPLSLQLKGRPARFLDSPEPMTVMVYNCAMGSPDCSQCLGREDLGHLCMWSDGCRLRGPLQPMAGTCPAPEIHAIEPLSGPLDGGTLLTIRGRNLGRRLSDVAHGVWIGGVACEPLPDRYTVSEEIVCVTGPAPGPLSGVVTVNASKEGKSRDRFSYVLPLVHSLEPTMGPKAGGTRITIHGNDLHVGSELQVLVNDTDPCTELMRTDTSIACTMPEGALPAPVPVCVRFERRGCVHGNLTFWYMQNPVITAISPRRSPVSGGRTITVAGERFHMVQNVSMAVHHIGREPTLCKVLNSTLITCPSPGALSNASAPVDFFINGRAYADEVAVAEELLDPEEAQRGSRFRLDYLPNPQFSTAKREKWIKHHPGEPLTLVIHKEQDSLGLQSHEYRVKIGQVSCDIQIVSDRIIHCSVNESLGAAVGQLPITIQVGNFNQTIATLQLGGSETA
Procedure: Binding experiments were performed by SPR measurements on a Biacore 3000 instrument (Biacore Inc.) at 25° C. PlxD1-Fc constructed as described in Example 1 was immobilized at high surface density (˜10,000 RU) on an activated CM5 chip using standard amine coupling procedures as described by the manufacturer. PlxD1-Fc was injected at a concentration of 10 μg/ml in 20 mM sodium acetate, pH 4.5 and at a flow rate of 5 μl/min until desired surface densities, measured in response units (RU), were reached. Unreacted groups were blocked by injecting 1 M ethanolamine. To perform binding assays, different concentrations of Sema3E^SD-His were injected in 10 mM HEPES pH 7.4, 150 mM NaCl, 0.005% v/v Surfactant P20, at a flow rate of 5 μl/min. Blank surfaces were used for background corrections. Injections of 10 mM glycine, pH 3.0 at 100 μl/min for 1 min were used to regenerate surfaces between two binding experiments. Kinetic analysis was performed with binding sensorgrams of different analyte concentrations using the BIAevaluation Software (Biacore Inc.). An one-to-one binding model was used to fit the experimental data for association and dissociation reactions. Dissociation constants were calculated from the on and off rates. […] Radioligand cell binding assays were performed and the dissociation constant for Sema3E^SD-Fc binding to HUVECs was calculated to 4 nM.

[2] = molecular target: T2, human PlexinD1 expressed on human umbilical vein endothelial cells (HUVECs) (human, UniProt Q9Y4D7 47-1925); assay: radioligand cell binding assay on HUVECs; radioligand binding on HUVECs (endogenous human PlexinD1); Fc fusion, not His
T2 construct: whole, on cells; Endogenous receptor on primary cells; also called native PlexinD1

[3] = molecular target: T3, murine PlexinD1 expressed on mouse microvascular endothelial (MS1) cells (mouse, UniProt Q3UH93 49-1925); assay: FACS on MS1 cells
T3 construct: whole, on cells; Endogenous receptor on a cell line

| Kd [1] | Kd [2] | binding result [3] | Binder |
| --- | --- | --- | --- |
| 24 nM | – | – | Sema3E^SD-His (human Semaphorin 3E Ala26 to Arg560 of SEQ ID NO: 1 with an N-terminal Histidine tag) (ligand, not shown: small tags and cut ends, Produced by transient transfection of CHO cells; also called His-tagged Sema3E^SD; soluble Sema3E sema domain construct) ADTTHPRLRLSHKELLNLNRTSIFHSPFGFLDLHTMLLDEYQERLFVGGRDLVYSLSLERISDGYKEIHWPSTALKMEECIMKGKDAGECANYVRVLHHYNRTHLLTCGTGAFDPVCAFIRVGYHLEDPLFHLESPRSERGRGRCPFDPSSSFISTLIGSELFAGLYSDYWSRDAAIFRSMGRLAHIRTEHDDERLLKEPKFVGSYMIPDNEDRDDNKVYFFFTEKALEAENNAHAIYTRVGRLCVNDVGGQRILVNKWSTFLKARLVCSVPGMNGIDTYFDELEDVFLLPTRDHKNPVIFGLFNTTSNIFRGHAICVYHMSSIRAAFNGPYAHKEGPEYHWSVYEGKVPYPRPGSCASKVNGGRYGTTKDYPDDAIRFARSHPLMYQAIKPAHKKPILVKTDGKYNLKQIAVDRVEAEDGQYDVLFIGTDNGIVLKVITIYNQEMESMEEVILEELQIFKDPVPIISMEISSKRQQLYIGSASAVAQVRFHHCDMYGSACADCCLARDPYCAWDGISCSRYYPTGTHAKRRFRR |
| – | 4 nM | binds | Sema3E^SD-Fc (human Semaphorin 3E Met1 to Ala554 of SEQ ID NO: 1 with the Fc portion of human IgG1 as C-terminal fusion partner) (Fc fusion, The construct as cloned starts at Met1; also called Sema3E^SD-Fc immunoadhesin; not shown: Fc portion of human IgG1) ADTTHPRLRLSHKELLNLNRTSIFHSPFGFLDLHTMLLDEYQERLFVGGRDLVYSLSLERISDGYKEIHWPSTALKMEECIMKGKDAGECANYVRVLHHYNRTHLLTCGTGAFDPVCAFIRVGYHLEDPLFHLESPRSERGRGRCPFDPSSSFISTLIGSELFAGLYSDYWSRDAAIFRSMGRLAHIRTEHDDERLLKEPKFVGSYMIPDNEDRDDNKVYFFFTEKALEAENNAHAIYTRVGRLCVNDVGGQRILVNKWSTFLKARLVCSVPGMNGIDTYFDELEDVFLLPTRDHKNPVIFGLFNTTSNIFRGHAICVYHMSSIRAAFNGPYAHKEGPEYHWSVYEGKVPYPRPGSCASKVNGGRYGTTKDYPDDAIRFARSHPLMYQAIKPAHKKPILVKTDGKYNLKQIAVDRVEAEDGQYDVLFIGTDNGIVLKVITIYNQEMESMEEVILEELQIFKDPVPIISMEISSKRQQLYIGSASAVAQVRFHHCDMYGSACADCCLARDPYCAWDGISCSRYYPTGTHA |
